Assays:
hRAGE-Fc [1] = target: T1, hRAGE-Fc (human, UniProt Q15109 23-342, biotin label in the selections and HTRF assays); assay: IC50 of parental M4 scFv over IC50 of clone, HTRF competition
T1 construct: extracellular domain; also called biotin labeled hRAGE-Fc; Biotin-labeled RAGE-Fc; not shown: Fc part
Description: (§1) Increases in binding to RAGE antigen were detected with the aid of a competition assay using parental XT-M4 antibody. Both phage display and ribosome display libraries were selected for affinity improved variants by incubating with biotin labeled hRAGE-Fc, recovering binding clones using streptavidin magnetic beads and washing away non binding variants. Sequential rounds of selection were carried on decreasing antigen concentrations to drive the preferential recovery of higher affinity variants. Clones recovered after selection were subsequently screening for improved binding to hRAGE-Fc using HTRF. This is an assay that measures the decrease in fluorescence upon binding of parental europium cryptate-labeled XT-M4 to RAGE in the presence of competing test scFv antibodies. In these assays, periplasmic preparations of scFv were prepared from bacterial cultures and added in increasing concentrations to a combination of parental antibody and antigen. The ability of the scFV to compete with parental XT-M4 antibody to bind to Biotin-labeled RAGE-Fc was determined. In the presence of avidin-XL665 complex labeled XT-M4 bound to biotinylated RAGE-FC was detected by Fluorescence. Increasing amounts of scFv that competed with the XT-M4 for binding to biotinylated-RAGE-Fc was detected as a decrease in fluorescence. A sequential process of screening was used to focus in on a smaller number of clones with the greatest competition in HTRF assay

hRAGE-Fc [2] = target: T1, hRAGE-Fc; assay: HTRF competition, scFv vs labelled parental XT-M4 (competitor) on hRAGE
Description: as §1

hRAGE-Fc [3] = target: T1, hRAGE-Fc; assay: HTRF competition, scFv vs labelled parental XT-M4 (competitor) on biotin hRAGE-Fc
Description: as §1

HU-RAGE-SA [4] = target: T2, HU-RAGE-SA (human, UniProt Q15109 23-342); assay: BIAcore kd against parental M4 scFv-Fc
T2 construct: extracellular domain; Directly immobilized on a CM5 chip (~100 RU); also called hRAGE-SA; soluble human streptavidin-tagged RAGE; not shown: streptavidin tag (SA)
T2 sequence (Q15109 23-342): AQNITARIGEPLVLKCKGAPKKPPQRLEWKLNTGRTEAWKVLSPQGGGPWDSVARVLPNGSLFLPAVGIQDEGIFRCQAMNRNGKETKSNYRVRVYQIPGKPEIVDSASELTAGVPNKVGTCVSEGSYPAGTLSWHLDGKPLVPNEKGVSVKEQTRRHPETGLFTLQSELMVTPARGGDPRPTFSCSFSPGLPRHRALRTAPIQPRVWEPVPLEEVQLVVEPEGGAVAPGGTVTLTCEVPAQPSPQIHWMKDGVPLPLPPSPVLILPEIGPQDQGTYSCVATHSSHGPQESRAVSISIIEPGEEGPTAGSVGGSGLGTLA

hRAGE-Fc [5] = target: T1, hRAGE-Fc; assay: IC50 of parental M4 scFv-Fc over IC50 of clone, HTRF competition
[6] = target: T3, human RAGE expressed on CHO cells (human, UniProt Q15109 23-404); assay: cell ELISA on CHO-RAGE cells, A450 corrected for control CHO cells
T3 construct: whole, on cells; also called CHO-RAGE cells; cell surface expressed human RAGE
T3 sequence (Q15109 23-404): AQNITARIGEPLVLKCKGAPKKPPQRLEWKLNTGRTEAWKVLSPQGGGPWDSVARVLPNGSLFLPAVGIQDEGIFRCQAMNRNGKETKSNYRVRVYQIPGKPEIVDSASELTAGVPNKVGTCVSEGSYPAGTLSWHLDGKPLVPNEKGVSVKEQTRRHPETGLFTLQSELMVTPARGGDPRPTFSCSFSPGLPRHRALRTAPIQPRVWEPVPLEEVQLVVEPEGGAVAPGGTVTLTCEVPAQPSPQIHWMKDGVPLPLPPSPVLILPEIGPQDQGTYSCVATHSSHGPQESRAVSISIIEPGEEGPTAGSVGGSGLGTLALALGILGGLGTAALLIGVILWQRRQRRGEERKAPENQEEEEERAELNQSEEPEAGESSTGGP
Description: Stably transfected Chinese Hamster Ovary (CHO) cells were engineered to express murine and human RAGE full length proteins. The murine and human RAGE cDNAs were cloned into the mammalian expression vector pSMED, linearized and transfected into CHO cells using lipofectin methods (Kaufman, R. J., 1990, Methods in Enzymology 185:537-66; Kaufman, R. J., 1990, Methods in Enzymology 185:487-511; Pittman, D. D. et al., 1993, Methods in Enzymology 222: 236). Cells were further selected in 20 nM methotrexate and cell extracts were harvested from individual clones and analyzed by SDS sodium dodecyl sulfate-polyacrylamide gel electrophoresis (SDS-PAGE) and Western blotting to confirm expression. […] Absorbance 450 nm values were corrected for the same clones binding to control CHO cells not expressing RAGE. EC50 values were calculated after curve fitting using GraphPad prism and are expressed in μg/ml.

HU-RAGE-SA [7] = target: T2, HU-RAGE-SA; assay: BIAcore, 10 nM scFv-Fc over directly immobilized HU-RAGE-SA, 1:1 fit

T1 sequence (Q15109 23-342): as the sequence (Q15109 23-342) above

Row | Fold gain scFv (hRAGE) (hRAGE-Fc [1]) | IC50 (hRAGE-Fc [2]) | IC50 (hRAGE-Fc [3]) | Fold change in kd (HU-RAGE-SA [4]) | Fold gain scFv-Fc (hRAGE) (hRAGE-Fc [5]) | EC50 [6] | koff (HU-RAGE-SA [7]) | Binder
1 | 18.6 fold | 1.77 nM | 1.77 nM | – | – | – | – | 6B2 scFv (scFv) scFv: DIQMTQSPSSLSASVGDRVTITCRASQDVGIYVNWFQQKPGKAPRRLIYRATNLADGVPSRFSGSRSGTDFTLTISSLQPEDFATYYCLEFDEHPLTFGGGTKVEIKDGGGSGGGGSGGGGSSEVQLVESGGGLVQPGGSLRLSCAASGFTFNNYWMTWVRQAPGKGLEWVASIDNSGDNTYYPDSVKDRFTISRDNAKNSLYLQMNSLRAEDTAVYYCARGGDIRVGLDVWGQGTLVTVSS
2 | – | – | – | 33.8 fold | 9.9 fold | 0.0673 µg/mL | 0.000867 s⁻¹ | 3A6 scFv-Fc fusion (Fc fusion, not shown: wild-type human IgG Fc (hinge and constant domains)) DIQMTQSPSSLSASVGDRVTITCRASQDVGIYVNWFQQKPGKAPRRLIYRATNLADGVPSRFSGSRSGTDFTLTISSLQPEDFATYYCLEFDEHPLTFGGGTKVEIKDGGGSGGGGSGGGGSSEVQLVESGGGLVQPGGSLRLSCAASGFTFNNYWMTWVRQAPGKGLEWVASIDNSGDNTYYPDSVKDRFTISRDNAKNSLYLQMNSLRAEDTAVYYCARGGDILVSLDVWGQGTLVTVSS
3 | – | – | – | 0.35 fold | 6.1 fold | – | 0.0826 s⁻¹ | 5H3 scFv-Fc fusion (Fc fusion, not shown: wild-type human IgG Fc (hinge and constant domains)) DIQMTQSPSSLSASVGDRVTITCRASQDVGIYVNWFQQKPGKAPRRLIDRATNLADGVPSRFSGSRSGTDFTLTISSLQPEDFATYYCLEFDEHPLTFGGGTKVEIKDGGGSGGGGSGGGGSSEVLLVESGGGLVQPGGSLRLSCAASGFTFNNYWMTWVRQAPGKGLEWVASIDNSGDNTYYPDSVKDRFTISRDNAKNSLYLQMNSLRAEDTAVYYCARGGDITTGFDYWGQGTLVTVSS
4 | – | – | – | 25.7 fold | 6.9 fold | 0.113 µg/mL | 0.00114 s⁻¹ | 2E6 scFv-Fc fusion (Fc fusion, also called 2E6 (c); not shown: wild-type human IgG Fc (hinge and constant domains)) DIQMTQSPSSLSASVGDRVTITCRASQDVGIYVNWFQQKPGKAPRRLIYRATNLADGVPSRFSGSRSGTDFTLTISSLQPEDFATYYCLEFDEHPLTFGGGTKVEIKDGGGSGGGGSGGGGNSEVQLVESGVGLVQPGGSLRLSCAASGFTFNNYWMTWVRQAPGKGLEWVASIDNSGDNTYYPDSVKDRFTISRDNAKNSLYLQMNSLRAEDTAVYYCARGGDITNGLDYWGQGTLVTVSS
5 | 50.7 fold | 0.65 nM | 0.645 nM | – | – | – | – | 6B6 scFv (scFv) scFv: DIQMTQSPSSLSASVGDRVTITCRASQDVGIYVNWFQQKPGKAPRRLIYRATNLADGVPSRFSGSRSGTDFTLTISSLQPEDFATYYCLEFDEHPLTFGGGTKVEIKDGGGSGGGGSGGGGSSEVQLVESGGGLVQPGGSLRLSCAASGFTFNNYWMTWVRQAPGKGLEWVASIDNSGDNTYYPDSVKDRFTISRDNAKNSLYLQMNSLRAEDTAVYYCARGGDIIISLDWWGQGTLVTVSS
6 | – | – | – | 25.3 fold | 13.7 fold | – | 0.00116 s⁻¹ | 10H6 scFv-Fc fusion (Fc fusion, also called 10H6 (a); not shown: wild-type human IgG Fc (hinge and constant domains)) DIQMTQSPSSLSASVGDGVTITCQASQDVGIYVNWFQQKPGKAPRRLIYRATNLADGVPSRFSGSRSGTDFTLTISSLQPEDFATYYCLEFDEHPLTFGGGTKVEIKNGGGSGGGGSGGGGSSEVQLVESGGGLVQPGGSLRLSCAASGFTFNNYWMTWVRQAPGKGLEWVASIDNSGDNTYYPDSVKDRFTISRDNAKNSLYLQMNSLRAEDTAVYYCARGGDITTGLDYWGQGTLVTESS
7 | – | – | – | 7.4 fold | 31.3 fold | 0.136 µg/mL | 0.00391 s⁻¹ | 3D2 scFv-Fc fusion (Fc fusion, not shown: wild-type human IgG Fc (hinge and constant domains)) DIQMTQSPSSLSASVGDRVTITCRASQDVGIYVNWFQQKPGKAPRRLIYRATNLADGVPSRFSGSRSGTDFTLTISSLQPEDFATYYCLEFDEHPLTFGGGTKVEIKDGGGSGGGGSGGGGSSEVQLVESGGGLVQPGGSLRLSCAASGFTFNNYWMTWVRQAPGKGLEWVASIDNSGDNTYYPDSVKDRFTISRDNAKNSLYLQMNSLRAEDTAVYYCARGGDIRVSLDHWGQGTLVTVSS
8 | – | – | – | 4.5 fold | 8.8 fold | 0.541 µg/mL | 0.00649 s⁻¹ | 3B3 scFv-Fc fusion (Fc fusion, not shown: wild-type human IgG Fc (hinge and constant domains)) DIQMTQSPSSLSASVGDRVTITCRASQDVGFYVNWFQQKPGKAPRRLIYRATNLADGVPSRFSGSRSGTDFTLTISSLQPEDFATYYCLEFDEHPLTFGGGTKVEIKDGGGSGGGGSGGGGSSEVQLVESGGGLVQPGGSLRLSCAASGFTFNNYWMTWVRQAPGKGLEWVASIDNSGDNTYYPDSVKDRFTISRDNAKNSLYLQMNSLRAEDTAVYYCARGGDITTGLDYWGQGTLVTVSS
9 | – | – | – | 42.8 fold | 34.2 fold | 0.0335 µg/mL | 0.000684 s⁻¹ | 3B2 scFv-Fc fusion (Fc fusion, not shown: wild-type human IgG Fc (hinge and constant domains)) DIQMTQSPSSLSASVGDRVTITCRASQDVGIYVNWFQQKPGKAPRRLIYRATNLADGVPSRFSGSRSGTDFTLTISSLQPEDFATYYCLEFDEHPLTFGGGTKVEIKDGGGSGGGGSGGGGSSEVQLVESGGGLVQPGGSLRLSCAASGFTFNNYWMTWVRQAPGKGLEWVASIDNSGDNTYYPDSVKDRFTISRDNAKNSLYLQMNSLRAEDTAVYYCARGGDILVGLDYWGQGTLVTVSS
10 | 21.5 fold | 1.53 nM | 1.53 nM | – | – | – | – | 6C3 scFv (scFv) scFv: DIQMTQSPSSLSASVGDRVTITCRASQDVGIYVNWFQQKPGKAPRRLIYRATNLADGVPSRFSGSRSGTDFTLTISSLQPEDFATYYCLEFDEHPLTFGGGTKVEIKDGGGSGGGGSGGGGSSEVQLVESGGGLVQPGGSLRLSCAASGFTFNNYWMTWVRQAPGKGLEWVASIDNSGDNTYYPDSVKDRFTISRDNAKNSLYLQMNSLRAEDTAVYYCARGGDITLGLDVWGQGTLVTVSS
11 | 48.2 fold | 0.73 nM | 0.731 nM | – | – | – | – | 6C2 scFv (scFv) scFv: DIQMTQSPSSLSASVGDRVTITCRASQDVGIYVNWFQQKPGKAPRRLIYRATNLADGVPSRFSGSRSGTDFTLTISSLQPEDFATYYCLEFDEHPLTFGGGTKVEIKDGGGSGGGGSGGGGSSEVQLVESGGGLVQPGGSLRLSCAASGFTFNNYWMTWVRQAPGKGLEWVASIDNSGDNTYYPDSVKDRFTISRDNAKNSLYLQMNSLRAEDTAVYYCARGGDIKVSLDRWGQGTLVTVSS
12 | – | – | – | 66.9 fold | 6.4 fold | 0.188 µg/mL | 0.000438 s⁻¹ | 1G6 scFv-Fc fusion (Fc fusion, not shown: wild-type human IgG Fc (hinge and constant domains)) DIQMTQSPSSLSASVGDRVTITCRASQDVGFYVNWFQQKPGKAPRRLIYRATNLADGVPSRFSGSRSGTDFTLTISSLQPEDFATYYCLEFDEHPLTFGGGTKVEIKDGGGSGGGGSGGGGSSEVQLVESGGGLVQPGGSLRLSCAASGFTFNNYWMTWVRQAPGKGLEWVASIDNSGDNTYYPDSVKDRFTISRDNAKNSLYLQMNSLRAEDTAVYYCARGGDITNGFDYWGQGTLVTVSS
13 | 16.2 fold | 2.03 nM | 2.03 nM | – | – | – | – | 6G4 scFv (scFv) scFv: DIQMTQSPSSLSASVGDRVTITCRASQDVGIYVNWFQQKPGKAPRRLIYRATNLADGVPSRFSGSRSGTDFTLTISSLQPEDFATYYCLEFDEHPLTFGGGTKVEIKDGGGSGGGGSGGGGSSEVQLVESGGGLVQPGGSLRLSCAASGFTFNNYWMTWVRQAPGKGLEWVASIDNSGDNTYYPDSVKDRFTISRDNAKNSLYLQMNSLRAEDTAVYYCARGGDILDSLHFWGQGTLVTVSS

From patent US20100143349A1 (Pfizer, published 2010)
